We go through 2 substances from patent US20200048631.

One data set has as its system Gal4-VP16. Put plainly: cell_activity. Particulars: 0.5 ug Gal4 plasmid, no tTA.
The test system of data set [1] is tTA (tetracycline transactivator, TetR-VP16). Put plainly: cell_activity. The settings on record: 0.5 ug tTA plasmid, no Gal4.
Setting [2] is: 0.1 without TF, 16.0 with both TFs at 0.5 ug.

Turning to “H1 hybrid promoter pT2U2T2U2 (TetO and UAS, CMV minimal promoter)”, the activity in the data set on Gal4-VP16 (<0.1 without TF, HEK293FT, synergy with tTA) was found to be 9.2 % ON cells; in data set [1] (<0.1 without TF, HEK293FT, synergy with Gal4), 3.1 % ON cells.

Regarding “H2 hybrid promoter pT2U3 (TetO and UAS, CMV minimal promoter)”, the activity came to 4 % ON cells in the data set on Gal4-VP16 (setting [2]) and 0.8 % ON cells in data set [1] (setting [2]).
